# In patent publication US6576455B1, “Structure-based designed herbicide resistant products” (priority 1995, dated 2003):
# B1: Arg199Glu: Arabidopsis AHAS variant (and gene) with Arg199Glu mutation, corresponding to maize Arg128Glu; vector pJK004 (protein, UniProt P17597 56-670, looked up, variant R199E)
# Acetolactate synthase, …: SSSPSSISAVLNTTTNVTTTPSPTKPTKPETFISRFAPDQPRKGADILVEALERQGVETVFAYPGGASMEIHQALTRSSSIRNVLPRHEQGGVFAAEGYARSSGKPGICIATSGPGATNLVSGLADALLDSVPLVAITGQVPREMIGTDAFQETPIVEVTRSITKHNYLVMDVEDIPRIIEEAFFLATSGRPGPVLVDVPKDIQQQLAIPNWEQAMRLPGYMSRMPKPPEDSHLEQIVRLISESKKPVLYVGGGCLNSSDELGRFVELTGIPVASTLMGLGSYPCDDELSLHMLGMHGTVYANYAVEHSDLLLAFGVRFDDRVTGKLEAFASRAKIVHIDIDSAEIGKNKTPHVSVCGDVKLALQGMNKVLENRAEELKLDFGVWRNELNVQKQKFPLSFKTFGEAIPPQYAIKVLDELTDGKAIISTGVGQHQMWAAQFYNYKKPRQWLSSGGLGAMGFGLPAAIGASVANPDAIVVDIDGDGSFIMNVQELATIRVENLPVKVLLLNNQHLGMVMQWEDRFYKANRAHTFLGDPAQEDEIFPNMLLFAAACGIPAARVTKKADLREAIQTMLDTPGPYLLDVICPHQEHVLPMIPSGGTFNDVITEGDGRIKY
# Assays:
# tobacco plants [1] = assay: Germination tests of tobacco seeds in the presence of CL 299,263 (imazamox); type: in vivo, Nicotiana tabacum; conditions: 2.5 μM CL 299,263
# Procedure: Tobacco plants transformed with rationally designed AHAS genes as described in Example 8 above were also tested for cross-resistance to another herbicide, CL 299,263 (also known as imazamox).
# tobacco shoots = assay: Root formation of tobacco shoots on medium containing 0.25 μM imazethapyr; type: in vivo, Nicotiana tabacum cv. Wisconsin 38; conditions: 0.25 μM imazethapyr in medium
# Procedure: FIG. 13 is a photograph showing the root development of tobacco plants transformed with the Arabidopsis AHAS gene containing either the Met124Ile or Arg199Glu mutation and a non-transformed control. Plants were grown for 18 days after transfer into medium containing 0.25 μM imazethapyr.
# (§1) Leaf disc transformation of Nicotiana tabacum cv. Wisconsin 38 was performed as described by Horsch et al. (Science, 227: 1229-1231, 1985) with slight modifications. Leaf discs were cut from plants grown under sterile conditions and co-cultivated upsidedown in Murashige Skoog media (Sigma Chemical Co., St. Louis, Mo.) for 2-3 days at 25° C. in darkness with Agrobacterium tumefaciens strains containing plasmids pJK002, pJK003, or pJK004. The discs were blotted dry and transferred to regeneration Murashige Skoog medium with B5 vitamins containing 1 mg/L benzyladenine and 0.1 mg/l 1-Napthyl Acetic Acid, 100 mg/L kanamycin, and 500 mg/L cefotaxime (all obtained from Sigma).
# Initially, transformants were selected by kanamycin resistance conferred by the nptII gene present in the transformation vector. Shoots derived from the leaf discs were excised and placed on fresh Murashige Skoog hormone free media containing cefotaxime and kanamycin.
# Kanamycin-resistant tobacco shoots were transferred to medium containing a 0.25 μM imazethapyr. […]
# Arabidopsis AHAS protein [2] = conditions: no herbicide
# Procedure: (a) specific or catalytic activity for conversion of pyruvate to acetolactate (expressed as units/mg pure AHAS, wherein a unit of activity is defined as 1 μmole acetolactate produced/hour), or for condensation of pyruvate and 2-ketobutyrate to form acetohydroxybutyrate (expressed as units/mg pure AHAS, wherein a unit of activity is defined as 1μ mole acetohydroxybutyrate produced/hr.;
# (§2) The enzymatic properties of wild-type and variant AHAS produced in E. coli were measured by a modification of the method of Singh et al. (Anal. Biochem […]:173-179, 1988) as follows:
# (§3) A reaction mixture containing 1× AHAS assay buffer (50 mM HEPES pH 7.0, 100 mM pyruvate, 10 mM MgCl2, 1 mM thiamine pyrophosphate (TPP), and 50 μM flavin adenine dinucleotide (FAD)) was obtained either by dilution of enzyme in 2× assay buffer or by addition of concentrated enzyme to 1× AHAS assay buffer. All assays containing imazethapyr and associated controls contained a final concentration of 5% DMSO due to addition of imazethapyr to assay mixtures as a 50% DMSO solution. Assays were performed in a final volume of 250 μL at 37° C. in microtiter plates. After allowing the reaction to proceed for 60 minutes, acetolactate accumulation was measured […] as described by Singh et al., Anal. Biochem 171:173-179, 1988.
# Arabidopsis AHAS protein [3] = conditions: increasing concentrations of imazethapyr, 5% DMSO; FIGS. 7, 9, 10, 11
# Procedure: as §2, §3
# tobacco plants [4] = assay: Spraying of transformed tobacco plants with imazethapyr; type: in vivo, Nicotiana tabacum cv. Wisconsin 38; conditions: twice the field rate (100 g/ha) of imazethapyr
# Procedure: as §1
# Kanamycin-resistant tobacco shoots were transferred to medium containing a 0.25 μM imazethapyr.
molecule,measurement,setting,value
"COCc1cnc(C2=NC(C)(C(C)C)C(=O)N2)c(C(=O)O)c1 (stereo not drawn) [CL 299,263, imazamox]",effect on wild-type tobacco plants,tobacco plants [1],severe stunting and bleaching
CCc1cnc(C2=NC(C)(C(C)C)C(=O)N2)c(C(=O)O)c1 (stereo not drawn) [imazethapyr],root formation of non-transformed tobacco shoots (endogenous wild-type AHAS),tobacco shoots,not able to initiate root formation
B1,Specific Activity,"Arabidopsis AHAS protein [2]; b134 expresses specific activity as units/mg pure AHAS, 1 unit = 1 μmole acetolactate produced/hour",114
same,% Catalytic Activity as Compared to Wild Type,Arabidopsis AHAS protein [2]; relative to wild-type AHAS,114%
same,resistance of enzymatic activity to imazethapyr (PURSUIT),Arabidopsis AHAS protein [3],improved levels of resistance
same,resistance of transformed tobacco plants to spraying with imazethapyr,tobacco plants [4],resistant
